# Source: patent US11066655B2, “RNA polymerase, methods of purification and methods of use” (President and Fellows of Harvard College, priority 2013, dated 2021)
# Entries after “also recorded” stand apart in the source; their conditions may differ.
# Key:
# [1] = Activity of Syn5 RNAP-NP (gel); assay type: biochemical
# Source text: FIG. 18 depicts gels showing expression and activity of Syn5 RNAP-NP.
# (§1) The wild-type Syn5 RNA polymerase gene was modified as follows to improve expression in E. coli cells. Nucleotides in Syn5 RNA polymerase gene (No. 808-825) CCA TTG GGC ACC CGT AAG (SEQ ID NO:78) encoding Pro Leu Gly Thr Arg Lys (SEQ ID NO:79) were mutated to CCT CTT GGT ACG CGC AAG (SEQ ID NO:80) without changing the amino acids encoded, and the Syn5 promoter A TTG GGC ACC CGT AA (SEQ ID NO:81) within this region was removed (FIG. 16). Thus, when expressed in E. coli, the enzyme produced by the modified gene would not start transcription from its own gene, enabling the cells to grow much faster (FIG. 17) and yield at least 5 times more enzyme than cells expressing wild-type Syn5 RNAP.
# [2] = system: E. coli BL21 (DE3); assay: Growth curve of E. coli expressing Syn5 RNA polymerase from wild-type or modified vector; assay type: cell-based; conditions: versus vector expressing wild-type Syn5 RNAP
# Source text: FIG. 17 graphically depicts a growth curve of E. coli BL21 (DE3) expressing Syn5 RNA polymerase from wild-type (WT, Syn5 RNAP-pET24a) or modified (Syn5 RNAP-NP-pET24a) vector.
# as §1
# E. coli BL21(DE3) was transformed with plasmid Syn5 RNAP-NP-pET24 encoding an N-terminal His-tagged Syn5 RNA polymerase. Cells were grown at 37° C. until they reached an OD of 1.2, at which point the temperature was reduced to 25° C. and IPTG was added at final concentration of 0.5 mM. Cells were grown an additional 4 hours before collection. The purification procedure used is described in “Zhu B, Tabor S, Richardson CC. (2014) Syn5 RNA polymerase synthesizes precise run-off RNA products. […]
# [3] = system: template for a 2.7 knt RNA or human mitochondrial tRNA^ProUGG; assay: 2′-F-dNTP incorporation by Syn5 RNA polymerase Y564F; assay type: biochemical
# Source text: FIGS. 28A, 28B, 28C and 28D depict gels showing a preference for 2′-F-dC/UTP over rC/UTP by Syn5 RNAP-Y564F.
# Syn5 RNA polymerases containing Y564F and/or Y574F mutation were constructed using a known PCR mutagenesis method (see Higuchi et al., Nucleic Acids Res. 16:7351-7367 (1988) hereby incorporated by reference in its entirety), expressed and purified using known methods. The wild type gene background for the mutants was also modified, with the internal Syn5 promoter removed to reduce toxicity and increase the yield of the protein when expressed in E. coli. Purified proteins were analyzed by SDS-PAGE. The mutants were used to incorporate 2′-F-dNTPs as described below.
# The reaction components were incubated at 37° C. for 4 hrs. 0.4 µl of the reaction mixture was loaded onto 2% agarose gel or 10% TBE gel and stained with ethidium bromide. Results are shown in FIG. 28A, FIG. 28B, FIG. 28C and FIG. 28D. The Y564F mutation does change the recognition of the 2′-group in the nucleotide substrates by Syn5 RNA polymerase. […] See FIG. 28A lane 4 vs 3; FIG. 28B lane 9-11 vs 6; FIG. 28C lane 11-13 vs 8).
Molecule,enzymatic activity versus wild-type [1],toxicity to host cells [2],"substrate preference 2′-F-dC/UTP versus rC/UTP ([3]; Mg buffer, 37° C.)",synthesis of long 2′-F RNA ([3]; low enzyme concentration),transcript with all four 2′-F-dNMPs ([3]; template starting with C),discrimination to 2′-F-dATP and 2′-F-dGTP ([3]; versus wild type)
"Syn5 RNAP-NP: Syn5 RNAP from modified gene (SEQ ID NO:83) with internal Syn5 promoter removed by silent mutations; same amino acids as wild-type (protein, Syn5 RNAP-NP, same amino acids as wild-type) MSFDLIARQLQRETEAAELARKRLQDARREANERSYASSNIESRKAIATFLDPIAQRIGERLFTLRRGTGAVDAAEVYKHLKNADHHHLALITMKTALDVLGKDPEPQIQQLTTAIGRNIQLELRLTYYAEENPELYKQASRFFHAGTGTRQKATVIKLKFNREGIEWDQWSRVTCHKVGQWLMLAMADVTGWIERATDRTSGGRKTKTRICYSREFLQHRDTILAAAEQLAFCQWPMLCPPIEWSNDHNGGYLSEQIRRVNPLIRKTGPLGTRKQGDIPLAMLNNLQGQAYKVNPEVLDIANHCYESNVTVGKFIRHAPLPVPPSPGEDCTEDQLTAYKRARREAEDFNAQISQKNWRTTEVMYVARKYADEASFWMPASFDYRGRVYFLNTALNPQGTDFDKALLYFAEEGPVNEWWLSFHVATTYGLDKETMVNRVQWARDNHELIDRIASDPVRHTEWHDADEPWCFLAACLEYKACVIDGTKQTSGLPIGIDATCSGLQHLAAMTRCGRTAALVNVTPTDKPADAYKTVAQASLKHLPKEQHEWITRKVTKRPVMCTPYGVTMSSARGYIRDQLVKDGHKEDLRSPGVLNGIVKAIFNEAIPEVIPGPVQVMAWLKRSAGQIIDRGDSTITWTTPSGFEVVQDLKKSKTYEVKTRIMGGARIKLQVGDGFTDEPDRDHHKSALAPNVVHSNDASLLHLTFAFWDKPFTVIHDCVLGRSCDMDQMGSDIRLHFAEMYKADVMQDWADQVGVELPVDLIKNTLDIDSVNQSLYFFS",same enzymatic activity as the wild-type Syn5 RNAP; also recorded: comparable enzymatic activity,less toxic to host cells,–,–,–,–
"Syn5 RNA polymerase Y564F: Syn5 RNA polymerase Y564F mutant for the incorporation of 2′-F-dNTPs (protein, Amino acid sequence of a cyanophage Syn5 RNAP, Syn5 RNA polymerase Y564F mutant for the incorporation of 2′-F-dNTPs) MSFDLIARQLQRETEAAELARKRLQDARREANERSYASSNIESRKAIATFLDPIAQRIGERLFTLRRGTGAVDAAEVYKHLKNADHHHLALITMKTALDVLGKDPEPQIQQLTTAIGRNIQLELRLTYYAEENPELYKQASRFFHAGTGTRQKATVIKLKFNREGIEWDQWSRVTCHKVGQWLMLAMADVTGWIERATDRTSGGRKTKTRICYSREFLQHRDTILAAAEQLAFCQWPMLCPPIEWSNDHNGGYLSEQIRRVNPLIRKTGPLGTRKQGDIPLAMLNNLQGQAYKVNPEVLDIANHCYESNVTVGKFIRHAPLPVPPSPGEDCTEDQLTAYKRARREAEDFNAQISQKNWRTTEVMYVARKYADEASFWMPASFDYRGRVYFLNTALNPQGTDFDKALLYFAEEGPVNEWWLSFHVATTYGLDKETMVNRVQWARDNHELIDRIASDPVRHTEWHDADEPWCFLAACLEYKACVIDGTKQTSGLPIGIDATCSGLQHLAAMTRCGRTAALVNVTPTDKPADAYKTVAQASLKHLPKEQHEWITRKVTKRPVMCTPFGVTMSSARGYIRDQLVKDGHKEDLRSPGVLNGIVKAIFNEAIPEVIPGPVQVMAWLKRSAGQIIDRGDSTITWTTPSGFEVVQDLKKSKTYEVKTRIMGGARIKLQVGDGFTDEPDRDHHKSALAPNVVHSNDASLLHLTFAFWDKPFTVIHDCVLGRSCDMDQMGSDIRLHFAEMYKADVMQDWADQVGVELPVDLIKNTLDIDSVNQSLYFFS",–,–,prefers 2′-F-dCTP and 2′-F-dUTP to canonical rCTP and rUTP,stably synthesizes long RNA containing 2′-F-dCMP and 2′-F-dUMP,Full-length transcript including all four 2′-F-dNMPs was synthesized,reduced
